# Measured values reported in patent publication US20120071419A1 (POSTECH ACADEMY INDUSTRY FOUNDATION, published 2012).
# Target: T1, EGFR (Epidermal Growth Factor Receptor) (human, UniProt P00533 26-444, limits assumed)
# T1 construct: also called EGF receptor
# Experiment: phage ELISA, wells coated with 4 ug/ml EGFR, anti-M13-HRP
# Experimental: (§1) Individual colonies were randomly selected from the output titration plate of the last round, and inoculated in 1 ml of super broth (3% tryptone, 2% yeast extract, 1% 3-[N-Morpholino] propanesulfonic acid [MOPS], pH 7.0). after overnight incubation at 37° C., the supernatant was used for phage ELISA (enzyme-linked immunosorbant assay). microtitration plate wells were coated with 4 μg/ml EGFR-containing PBS at 4° C. for one night, and blocked with 3% BSA-containing PBS at 37° C. for 1 hour. The plate was cultured with the phage-containing supernatant at 37° C. for 2 hours, and washed with 0.05% Tween-20-containing PBS (PBST) three times. Thereafter, HRP (horseradish peroxidase)-conjugated anti-M13 antibody (Sigma) diluted in a blocking buffer solution (1:2000) was added thereto and cultured at 37° C. for 1 hour. 50 μl of TMB substrate solution (Pierce, Rockford, Ill.) was added to each well, and OD was measured at 650 nm.
row,Binder,OD at 650 nm
1,"wild type 1OZJ scaffold (B chain of 1OZJ, crystal structure of Smad3-MH1) (other, human, UniProt P84022 1-144, looked up, domain: Smad3-MH1; 6; also called WT) MSSILPFTPPIVKRLLGWKKGEQNGQEEKWCEKAVKSLVKKLKKTGQLDELEKAITTQNVNTKCITIPRSLDGRLQVSHRKGLPHVIYCRLWRWPDLHSHHELRAMELCEFAFNMKKDEVCVNPYHYQRVETPVLPPVLVPRHT",0.086 OD
2,clone 9 of the 1OZJ scaffold (designed binder) MSSILPFTPPIVKRLLGWKKGEQNGQEEKWCEKAVKSLVKKLKATGQLDELEKAITTQNVNTKCITIPRSLDGRLQVSHRKGLPHVIYCRLWRWPDLHSHHELRAMQLCIFAFLMKKPEVCVNPYHYQRVETPVLPPVLVPRHT,1.75 OD
3,"clone 43 of the 1OZJ scaffold (designed binder, domain: Smad3-MH1) MSSILPFTPPIVKRLLGWKKGEQNGQEEKWCEKAVKSLVKKLKRTGQLDELEKAITTQNVNTKCITIPRSLDGRLQVSHRKGLPHVIYCRLWRWPDLHSHHELRAMHLCNFAFGMKKAEVCVNPYHYQRVETPVLPPVLVPRHT",0.919 OD
4,clone 6 of the 1OZJ scaffold (designed binder) MSSILPFTPPIVKRLLGWKKGEQNGQEEKWCEKAVKSLVKKLKSTGQLDELEKAITTQNVNTKCITIPRSLDGRLQVSHRKGLPHVIYCRLWRWPDLHSHHELRAMGLCSFAFNMKKLEVCVNPYHYQRVETPVLPPVLVPRHT,1.83 OD
5,"clone 31 of the 1OZJ scaffold (designed binder, domain: Smad3-MH1) MSSILPFTPPIVKRLLGWKKGEQNGQEEKWCEKAVKSLVKKLKGTGQLDELEKAITTQNVNTKCITIPRSLDGRLQVSHRKGLPHVIYCRLWRWPDLHSHHELRAMHLCPFAFKMKKWEVCVNPYHYQRVETPVLPPVLVPRHT",0.959 OD
6,"clone 55 of the 1OZJ scaffold (designed binder, domain: Smad3-MH1) MSSILPFTPPIVKRLLGWKKGEQNGQEEKWCEKAVKSLVKKLKITGQLDELEKAITTQNVNTKCITIPRSLDGRLQVSHRKGLPHVIYCRLWRWPDLHSHHELRAMKLCRFAFPMKKDEVCVNPYHYQRVETPVLPPVLVPRHT",0.964 OD
7,"clone 54 of the 1OZJ scaffold (designed binder, domain: Smad3-MH1) MSSILPFTPPIVKRLLGWKKGEQNGQEEKWCEKAVKSLVKKLKCTGQLDELEKAITTQNVNTKCITIPRSLDGRLQVSHRKGLPHVIYCRLWRWPDLHSHHELRAMILCDFAFPMKKREVCVNPYHYQRVETPVLPPVLVPRHT",1.16 OD

# The remaining lines, values ahead:
row,OD at 650 nm,Binder
1,1.02 OD,"clone 53 of the 1OZJ scaffold (designed binder, domain: Smad3-MH1) MSSILPFTPPIVKRLLGWKKGEQNGQEEKWCEKAVKSLVKKLKATGQLDELEKAITTQNVNTKCITIPRSLDGRLQVSHRKGLPHVIYCRLWRWPDLHSHHELRAMSLCSFAFSMKKIEVCVNPYHYQRVETPVLPPVLVPRHT"
2,1.18 OD,"clone 8 of the 1OZJ scaffold (designed binder, domain: Smad3-MH1) MSSILPFTPPIVKRLLGWKKGEQNGQEEKWCEKAVKSLVKKLKGTGQLDELEKAITTQNVNTKCITIPRSLDGRLQVSHRKGLPHVIYCRLWRWPDLHSHHELRAMPLCNFAFTMKKPEVCVNPYHYQRVETPVLPPVLVPRHT"
3,1.74 OD,clone 7 of the 1OZJ scaffold (designed binder) MSSILPFTPPIVKRLLGWKKGEQNGQEEKWCEKAVKSLVKKLKLTGQLDELEKAITTQNVNTKCITIPRSLDGRLQVSHRKGLPHVIYCRLWRWPDLHSHHELRAMALCAFAFMMKKCEVCVNPYHYQRVETPVLPPVLVPRHT

# Target: T1, EGFR (Epidermal Growth Factor Receptor)
# Experiment: phage ELISA, wells coated with 4 ug/ml EGFR, anti-M13-HRP, OD 650 nm
# Experimental: as §1
row,binding result,Binder
1,no binding,"wild type 1OZJ scaffold (B chain of 1OZJ, crystal structure of Smad3-MH1) (other, human, UniProt P84022 1-144, looked up, domain: Smad3-MH1; 6; also called WT) MSSILPFTPPIVKRLLGWKKGEQNGQEEKWCEKAVKSLVKKLKKTGQLDELEKAITTQNVNTKCITIPRSLDGRLQVSHRKGLPHVIYCRLWRWPDLHSHHELRAMELCEFAFNMKKDEVCVNPYHYQRVETPVLPPVLVPRHT"
